Measurements: patent US8383581B2, “Short-chain peptides as parathyroid hormone (PTH) receptor agonist” (Cadila Healthcare Limited, priority 2009, dated 2013)
*1 amine or outer side, *2 acyl side, *3 side chain or, on linkers, in order; H or OH if unused. Where no end group is shown, it is not given here. [ ]: non-standard residue; d: D form. αMe‑APPA = 2-amino-2-methyl-5-phenylpentanoic acid, C[C@@](CCCc1ccccc1)(N[*:1])C(=O)[*:2]; Bip(2'-Et-4'-OMe) = CCc1cc(OC)ccc1-c1ccc(C[C@H](N)C(=O)O)cc1; αMePhe(2,6-F2) = C[C@](N)(Cc1c(F)cccc1F)C(=O)O; αMePhe(2-F) = C[C@](N)(Cc1ccccc1F)C(=O)O; αMeW = C[C@](N)(Cc1c[nH]c2ccccc12)C(=O)O; αMeNle = CCCC[C@](C)(N[*:1])C(=O)[*:2]; αMe‑Bip(OMe) = α-methylated Bip(OMe); hhPhe = N[C@@H](CCCc1ccccc1)C(=O)O; hArg = N=C(N)NCCCC[C@H](N)C(=O)O; hCit = NC(=O)NCCCC[C@H](N)C(=O)O; αMeF = C[C@](N)(Cc1ccccc1)C(=O)O; Cit = NC(=O)NCCC[C@H](N)C(=O)O; αMeV = CC(C)[C@](C)(N)C(=O)O; αMeM = CSCC[C@](C)(N)C(=O)O; αMeP = C[C@@]1(C(=O)O)CCCN1; Nle = CCCC[C@H](N)C(=O)O; Ac5c = NC1(C(=O)O)CCCC1; Ac3c = NC1(C(=O)O)CC1; Aib = CC(C)(N)C(=O)O

These binders were tested against T1, rat PTH-1R (rat PTHR endogenously expressed on UMR-106 rat osteosarcoma cells) (rat, UniProt P25961 27-591) (assay: cell-based or functional assay).
T1 sequence (looked up): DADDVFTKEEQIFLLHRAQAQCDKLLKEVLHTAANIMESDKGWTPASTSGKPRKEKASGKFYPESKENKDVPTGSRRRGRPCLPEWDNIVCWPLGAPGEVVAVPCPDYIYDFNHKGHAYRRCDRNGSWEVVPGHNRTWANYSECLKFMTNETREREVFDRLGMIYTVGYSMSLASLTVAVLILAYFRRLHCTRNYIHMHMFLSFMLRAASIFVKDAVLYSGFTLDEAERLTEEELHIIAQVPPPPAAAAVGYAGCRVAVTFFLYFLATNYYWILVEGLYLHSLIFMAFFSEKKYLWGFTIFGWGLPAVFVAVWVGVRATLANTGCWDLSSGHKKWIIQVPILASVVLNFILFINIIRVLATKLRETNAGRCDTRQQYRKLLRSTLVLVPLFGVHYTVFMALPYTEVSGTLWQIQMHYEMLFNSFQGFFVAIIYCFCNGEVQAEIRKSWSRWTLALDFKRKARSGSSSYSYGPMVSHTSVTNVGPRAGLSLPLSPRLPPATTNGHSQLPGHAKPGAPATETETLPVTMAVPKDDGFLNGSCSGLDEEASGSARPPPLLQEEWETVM

Binder	cAMP released with respect to control, 1 nM peptide, UMR-106 cells	cAMP released with respect to control, 10 nM peptide, UMR-106 cells	cAMP released with respect to control, 100 nM peptide, UMR-106 cells
[Ac5c]V[Aib]EIQ[αMePhe(2,6-F2)][Nle]HQ[hArg]AK[αMeF] [Seq. ID. 49]	16 percent of control	56 percent of control	73 percent of control
[Ac3c]V[Aib]EIQ[αMePhe(2,6-F2)][Nle]HQ[hArg][Aib]K[αMeF] [Seq. ID. 41]	26 percent of control	79 percent of control	97 percent of control
[αMeV][Ac5c]V[Aib]EIQL[αMeM]HQ[hArg]A[hArg][Bip(2'-Et-4'-OMe)][αMe‑APPA] [Seq. ID. 926]	18 percent of control	51 percent of control	72 percent of control
[Aib]V[Aib]EIQ[αMePhe(2,6-F2)][Nle]HQ[αMePhe(2,6-F2)][Aib][Aib][Bip(2'-Et-4'-OMe)][hhPhe] [Seq. ID. 886]	31 percent of control	72 percent of control	100 percent of control
[Aib]V[Ac5c]EIQ[αMePhe(2,6-F2)][Nle]HQ[hArg][αMeP]K[αMePhe(2-F)] [Seq. ID. 78]	23 percent of control	73 percent of control	93 percent of control
[Aib]V[Aib]EIQLMHQ[hArg][Aib]K[αMeF] [Seq. ID. 9]	16 percent of control	41 percent of control	52 percent of control
[Aib]V[Aib]EIQ[αMePhe(2,6-F2)][Nle]HQ[hArg][Aib][Cit][αMePhe(2-F)] [Seq. ID. 132]	29 percent of control	82 percent of control	101 percent of control
[Ac3c]V[Aib]EIQ[αMePhe(2,6-F2)][Nle]HQ[hArg][αMeP]K[αMePhe(2,6-F2)] [Seq. ID. 110]	12 percent of control	39 percent of control	72 percent of control
V[Ac5c]V[Aib]EIQL[αMeNle]HQ[hArg]A[hArg][Bip(2'-Et-4'-OMe)][αMe‑APPA] [Seq. ID. 925]	16 percent of control	41 percent of control	52 percent of control
[Aib]V[Aib]EIQL[αMeM]HQ[hArg]A[hArg][αMeW][hhPhe] [Seq. ID. 942]	29 percent of control	52 percent of control	69 percent of control
[Aib]V[Ac5c]EIQ[αMePhe(2,6-F2)][Nle]HQ[hArg][Aib][Cit][αMePhe(2,6-F2)] [Seq. ID. 156]	31 percent of control	89 percent of control	106 percent of control
[Aib]V[Aib]EIQ[αMePhe(2-F)][Nle]HQ[hArg][αMeP]K[αMePhe(2,6-F2)] [Seq. ID. 91]	42 percent of control	101 percent of control	110 percent of control
[Ac3c]V[Aib]EIQ[αMePhe(2-F)][Nle]HQ[hArg][αMeP]K[αMePhe(2-F)] [Seq. ID. 59]	19 percent of control	66 percent of control	84 percent of control
[Ac3c]V[Aib]EIQ[αMePhe(2,6-F2)][Nle]HQ[hArg][Aib][Aib][αMePhe(2-F)] [Seq. ID. 174]	31 percent of control	72 percent of control	100 percent of control
V[Ac3c]V[Aib]EIQL[αMeM]HQ[hArg]A[hArg][αMeW][αMe‑APPA] [Seq. ID. 950]	26 percent of control	67 percent of control	81 percent of control
V[Aib]V[Aib]EIQL[Nle]HQ[hArg]A[hArg][Bip(2'-Et-4'-OMe)][αMe‑APPA] [Seq. ID. 905]	39 percent of control	104 percent of control	120 percent of control
[Aib]V[Aib]EIQ[αMePhe(2,6-F2)][Nle]HQ[hCit][Aib][αMePhe(2,6-F2)][Bip(2'-Et-4'-OMe)][hhPhe] [Seq. ID. 872]	19 percent of control	42 percent of control	59 percent of control
[Aib]V[Aib]EIQL[Nle]HQ[hArg]A[hArg][αMe‑Bip(OMe)][hhPhe] [Seq. ID. 899]	38 percent of control	91 percent of control	120 percent of control
[Ac5c]V[Ac5c]EIQ[αMePhe(2-F)][Nle]HQ[hArg][αMeP]K[αMePhe(2-F)] [Seq. ID. 65]	34 percent of control	82 percent of control	104 percent of control
V[Ac3c]V[Aib]EIQL[αMeNle]HQ[hArg]A[hArg][αMePhe(2-F)][αMe‑APPA] [Seq. ID. 935]	38 percent of control	102 percent of control	117 percent of control
[αMeV][Ac5c]V[Aib]EIQL[αMeM]HQ[hArg]A[hArg][αMeW][αMe‑APPA] [Seq. ID. 954]	36 percent of control	88 percent of control	116 percent of control
